Reference: article PMC6711705, “Tailored tetravalent antibodies potently and specifically activate Wnt/Frizzled pathways in cells, organoids and mice” (eLife, 2019)
Where two headings read alike, the source gives them in different places. Blank lines part the entries; values can stand above or below the binder they belong to.

Experiments:
Fc-tagged FZD7 CRD [1] = biological target: T1, Fc-tagged FZD7 CRD (Homo sapiens, UniProt O75084)
Fc-tagged FZD2 CRD [2] = biological target: T2, Fc-tagged FZD2 CRD (Homo sapiens, UniProt Q14332)
Fc-tagged FZD1 CRD = biological target: T3, Fc-tagged FZD1 CRD (Homo sapiens, UniProt Q9UP38); test: SPR; soluble F^P Fab or IgG injected over FZD-Fc immobilised on a GLC sensor by amine coupling; PBS, 0.05% Tween20, 0.5% BSA; 25 °C; 1:1 Langmuir model, global fit; details: both partners purified
T3 construct: Frizzled-1, human, cysteine rich domain (CRD); also called FZD1-Fc; source: bought: R and D Systems

Fc-tagged FZD7 CRD [3] = biological target: T1, Fc-tagged FZD7 CRD; test: as above; details: both partners purified
Fc-tagged FZD2 CRD [4] = biological target: T2, Fc-tagged FZD2 CRD; test: as above; details: both partners purified
Fc-tagged FZD4 CRD [5] = biological target: T4, Fc-tagged FZD4 CRD (Homo sapiens, UniProt Q9ULV1); test: as above; details: both partners purified
T4 construct: Frizzled-4, human, cysteine rich domain (CRD); also called FZD4-Fc; source: bought: R and D Systems

Fc-tagged FZD4 CRD [6] = biological target: T4, Fc-tagged FZD4 CRD
Target sequence in this assay (Q9ULV1 40-161): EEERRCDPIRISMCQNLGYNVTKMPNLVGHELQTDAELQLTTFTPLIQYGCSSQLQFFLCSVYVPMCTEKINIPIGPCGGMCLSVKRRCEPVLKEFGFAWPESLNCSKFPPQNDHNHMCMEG

binding result (Fc-tagged FZD1 CRD): binds
binding result (Fc-tagged FZD7 CRD [3]): binds
binding result (Fc-tagged FZD2 CRD [4]): binds
binding result (Fc-tagged FZD4 CRD [5]): binds
B3: F^P Fab (Fab, V domains shown)
VH: EVQLVESGGGLVQPGGSLRLSCAASGFNIGSSSIHWVRQAPGKGLEWVASIYSAFASTSYADSVKGRFTISADTSKNTAYLQMNSLRAEDTAVYYCARYHFPFGFALDYWGQGTLVTVSS
VL: DIQMTQSPSSLSASVGDRVTITCRASQSVSSAVAWYQQKPGKAPKLLIYSASSLYSGVPSRFSGSRSGTDFTLTISSLQPEDFATYYCQQGVYLFTFGQGTKVEIK
notes: VH as the F^P VH of m1; constant part of the Fab heavy chain; the Fab construct is not described; VL as the F^P VL of m1; constant part of the Fab light chain; Parent paratope of the N-terminal diabody of m1; also called pan-FZD Ab (F^P); source: Expi293F, transient transfection, purified (rProtein A Sepharose)

binding result (Fc-tagged FZD4 CRD [6]): binds
B4: FLAg 4+4 (anti-FZD4 paratope) (antibody, V domains shown)
VH: EVQLVESGGGLVQPGGSLRLSCAASGFNSSFYFMHWVRQAPGKGLEWVATVYPYLDYTYYADSVKGRFTISADTSKNTAYLQMNSLRAEDTAVYYCARAFPGSYHPMDYWGQGTLVTVSS
VL: DIQMTQSPSSLSASVGDRVTITCRASQSVSSAVAWYQQKPGKAPKLLIYSASSLYSGVPSRFSGSRSGTDFTLTISSLQPEDFATYYCQQSSYSLITFGQGTKVEIK

The remaining lines, values behind:

B1: FLAg 7+7 (anti-FZD7 paratope) (antibody, V domains shown)
VH: EVQLVESGGGLVQPGGSLRLSCAASGFNISSSSMHWVRQAPGKGLEWVASIYSYYGSTYYADSVKGRFTISADTSKNTAYLQMNSLRAEDTAVYYCARWYGMDYWGQGTLVTVSS
VL: DIQMTQSPSSLSASVGDRVTITCRASQSVSSAVAWYQQKPGKAPKLLIYSASSLYSGVPSRFSGSRSGTDFTLTISSLQPEDFATYYCQQPGSWYFPPITFGQGTKVEIK
binding result (Fc-tagged FZD7 CRD [1]): binds

B2: FLAg 2+2 (anti-FZD2 paratope) (antibody, V domains shown)
VH: EVQLVESGGGLVQPGGSLRLSCAASGFNIYYSSIHWVRQAPGKGLEWVASIYPYYGYTYYADSVKGRFTISADTSKNTAYLQMNSLRAEDTAVYYCARYYHYGLDYWGQGTLVTVSS
VL: DIQMTQSPSSLSASVGDRVTITCRASQSVSSAVAWYQQKPGKAPKLLIYSASSLYSGVPSRFSGSRSGTDFTLTISSLQPEDFATYYCQQSYWHSYLITFGQGTKVEIK
binding result (Fc-tagged FZD2 CRD [2]): binds
